Test [1] deals with T1, huNav1.7α + β1-β2-β3 (human, UniProt Q15858 1-1988; A5A6L6 19-218; O60939 30-215; Q2KI11 23-215). Briefly: cell-based or functional assay.
In a further test the target is Rhesus Nav1.7α (rhesus, UniProt Q15858 1-1988 (human entry)). Briefly: cell-based or functional assay.
Test [2] deals with rhNav1.7α + β1-β2-β3 (rhesus monkey). Description: cell-based or functional assay.
Test [3] has as its target T2, huNav1.7α (human, UniProt Q15858 1-1988). Briefly: cell-based or functional assay.
In another test the target is T3, huNav1.7α + β1 (human).
T3 construct: HEK293 cells; also called huNav1.7-beta1; huNav1.7-β1
Briefly: competition FACS vs EC25 of F103275B05(N93R), HEK.

For test [4], the target named is T2, huNav1.7α. Briefly: competition FACS vs EC25 of F103275B05(N93R), HEK.
In test [5] the target is T1, huNav1.7α + β1-β2-β3. Briefly: competition FACS vs EC25 of F103275B05(N93R), CHO FlpIn.
In test [6] the target is T1, huNav1.7α + β1-β2-β3. Briefly: competition FACS vs EC25 of F103275B05(N93R), HEK FlpIn.
For test [7], the target named is T4, rhNav1.7α + β1-β2-β3 (rhesus monkey).
T4 construct: also called rhNav1.7-beta1-beta2-beta3; rhNav1.7-β1-β2-β3
Description: competition FACS vs EC40 of F103275B05(N93R), CHO FlpIn.

Test [8] concerns the target T5, rhNav1.7α + β1-β2-β3 (rhesus Nav1.7α co-expressed with Navβ1, Navβ2 and Navβ3) (rhesus monkey).
T5 construct: also called rhNav1.7-beta1-beta2-beta3
Briefly: binding FACS; plus = higher activity than reference.

Another test deals with T6, huNav1.7α+β1 (human, UniProt Q15858 1-1988; Q07699 19-218).
T6 construct: also called huNav1.7-beta1; HEKa/β1
Briefly: binding FACS, HEK293 cells. The protocol: (§1) Binding of the ISVDs to cell-expressed Nav1.7α was detected via murine anti-Flag (Sigma, catalog #F1804). Briefly, cells were resuspended in FACS buffer (PBS, 10% FBS, NaN₃) and transferred to a 96-well V-bottom plate at 1×10^5 cells/well. Purified FLAG3-tagged ISVD was diluted in FACS buffer and added to the cells for 30 minutes at 4° C. […] Prior to the read-out, the samples were resuspended in 1 μg/mL propidium iodide (Sigma, catalog #P4170) to exclude dead cells. Between each step, the cells were centrifuged for 5 minutes at 200 grams and washed with 100 μL/well FACS buffer.
(§2) Crude periplasmic extracts containing ISVDs from phage display selections (as described above) were screened in FACS for binding to huNav1.7α but not to huNav1.5a. […] As used in Table 8, the drawings, and throughout the description, Navβ1, Navβ2, and Navβ3 are human homologs unless specifically identified otherwise.

In test [9] the target is T7, huNav1.7α+β1-β2-β3 (human, UniProt Q15858 1-1988; Q07699 19-218; O60939 30-215; Q9NY72 23-215).
T7 construct: 5N11S variant; also called huNav1.7-beta1-beta2-beta3; huNav1.7α+Navβ1-Navβ2-Navβ3
Briefly: binding FACS, CHO FlpIn cells. The protocol: as §1, §2

For the next test, the target named is T8, rhNav1.7α+β1-β2-β3 (rhesus monkey α subunit with human β …).
T8 construct: P2A cleaves it into α, β1, β2, β3; also called rhNav1.7-beta1-beta2-beta3
Description: binding FACS, CHO FlpIn cells. The method, then:
as §1, §2

In test [10] the target is T7, huNav1.7α+β1-β2-β3. Briefly: binding FACS, HEK FlpIn cells. The method, then: as §1, §2
Test [11] concerns the target T9, huNav157chimera14+β1-β2-β3 (human, UniProt Q07699 19-218; O60939 30-215; Q9NY72 23-215).
T9 construct: HEK FlpIn line; also called huNav157 chimera 14-beta1-beta2-beta3; Nav157ch14-β1-β2-β3
Briefly: binding FACS, HEK FlpIn cells. The method, then: as §1, §2

The next test addresses T10, huNav1.5α+β1-β2-β3 (human, UniProt Q14524 1-2016; A5A6L6 19-218; O60939 30-215; Q2KI11 23-215).
T10 construct: in the cell P2A cleaves it into α, β1, β2, β3; also called huNav1.5-beta1-beta2-beta3
Description: binding FACS, HEK FlpIn cells. The method, then:
as §1, §2

The target of test [12] is T11, huNav1.7(N146S, V194I, F276V, R277Q, E281V, V331M, E504D, D507E, S508N, N533S)-β1-β2-β3 (human, UniProt Q15858 1-1988; Q07699 19-218; O60939 30-215; Q9NY72 23-215).
T11 construct: Transiently on HEK293T cells; The text prints V1941 for V194I; also called chimeric variant of huNav1.7α with all DI huNav1.7α-rhNav1.7α polymorphisms
Description: FACS on transiently transfected HEK293T cells. The method, then: as §1
FACS binding studies (as described above) were performed on HEK293T cells transiently transfected with a chimeric variant of huNav1.7α in which all the huNav1.7α-rhNav1.7α polymorphisms of DI are present (N146S, V1941, F276V, R277Q, E281V, V331M, E504D, D507E, S508N, N533S). Replacing the huNav1.7α DI sequence for that of rhNav1.7α is sufficient to abolish the binding of F0103262CO2, F0103265B04, F0103262B06, and F0103265A11 to huNav1.7α, recapitulating the absence of binding on rhNav1.7α (see FIGS. 21A-21B).

Another test concerns the target T12, huNav1.3α (human, UniProt Q9NY46 1-2000).
T12 construct: also called huNav1.3 (alpha subunit)
Description: binding FACS on stable huNav1.x paralog HEK293T cell lines.

The target in another test is T13, huNav1.4α (human, UniProt P35499 1-1836).
T13 construct: also called huNav1.4 (alpha subunit)
The description is as above.

For the next test, the target named is T14, huNav1.5α (human, UniProt Q14524 1-2016).
T14 construct: also called huNav1.5 (alpha subunit)
The test is described as above.

For a further test, the target named is T15, huNav1.6α (human, UniProt Q9UQD0 1-1980).
T15 construct: also called huNav1.6 (alpha subunit)
The description is as above.

In another test the target is T16, huNav1.8α (human, UniProt Q9Y5Y9 1-1956).
T16 construct: also called huNav1.8 (alpha subunit)
Described as above.

The next test deals with huNav1.1α (human, UniProt P35498 1-2009). The test is described as above.
The target of another test is T17, huNav1.2α (human, UniProt Q99250 1-2005).
T17 construct: also called huNav1.2 (alpha subunit)
Described as above.

T17 sequence (Q99250 whole entry): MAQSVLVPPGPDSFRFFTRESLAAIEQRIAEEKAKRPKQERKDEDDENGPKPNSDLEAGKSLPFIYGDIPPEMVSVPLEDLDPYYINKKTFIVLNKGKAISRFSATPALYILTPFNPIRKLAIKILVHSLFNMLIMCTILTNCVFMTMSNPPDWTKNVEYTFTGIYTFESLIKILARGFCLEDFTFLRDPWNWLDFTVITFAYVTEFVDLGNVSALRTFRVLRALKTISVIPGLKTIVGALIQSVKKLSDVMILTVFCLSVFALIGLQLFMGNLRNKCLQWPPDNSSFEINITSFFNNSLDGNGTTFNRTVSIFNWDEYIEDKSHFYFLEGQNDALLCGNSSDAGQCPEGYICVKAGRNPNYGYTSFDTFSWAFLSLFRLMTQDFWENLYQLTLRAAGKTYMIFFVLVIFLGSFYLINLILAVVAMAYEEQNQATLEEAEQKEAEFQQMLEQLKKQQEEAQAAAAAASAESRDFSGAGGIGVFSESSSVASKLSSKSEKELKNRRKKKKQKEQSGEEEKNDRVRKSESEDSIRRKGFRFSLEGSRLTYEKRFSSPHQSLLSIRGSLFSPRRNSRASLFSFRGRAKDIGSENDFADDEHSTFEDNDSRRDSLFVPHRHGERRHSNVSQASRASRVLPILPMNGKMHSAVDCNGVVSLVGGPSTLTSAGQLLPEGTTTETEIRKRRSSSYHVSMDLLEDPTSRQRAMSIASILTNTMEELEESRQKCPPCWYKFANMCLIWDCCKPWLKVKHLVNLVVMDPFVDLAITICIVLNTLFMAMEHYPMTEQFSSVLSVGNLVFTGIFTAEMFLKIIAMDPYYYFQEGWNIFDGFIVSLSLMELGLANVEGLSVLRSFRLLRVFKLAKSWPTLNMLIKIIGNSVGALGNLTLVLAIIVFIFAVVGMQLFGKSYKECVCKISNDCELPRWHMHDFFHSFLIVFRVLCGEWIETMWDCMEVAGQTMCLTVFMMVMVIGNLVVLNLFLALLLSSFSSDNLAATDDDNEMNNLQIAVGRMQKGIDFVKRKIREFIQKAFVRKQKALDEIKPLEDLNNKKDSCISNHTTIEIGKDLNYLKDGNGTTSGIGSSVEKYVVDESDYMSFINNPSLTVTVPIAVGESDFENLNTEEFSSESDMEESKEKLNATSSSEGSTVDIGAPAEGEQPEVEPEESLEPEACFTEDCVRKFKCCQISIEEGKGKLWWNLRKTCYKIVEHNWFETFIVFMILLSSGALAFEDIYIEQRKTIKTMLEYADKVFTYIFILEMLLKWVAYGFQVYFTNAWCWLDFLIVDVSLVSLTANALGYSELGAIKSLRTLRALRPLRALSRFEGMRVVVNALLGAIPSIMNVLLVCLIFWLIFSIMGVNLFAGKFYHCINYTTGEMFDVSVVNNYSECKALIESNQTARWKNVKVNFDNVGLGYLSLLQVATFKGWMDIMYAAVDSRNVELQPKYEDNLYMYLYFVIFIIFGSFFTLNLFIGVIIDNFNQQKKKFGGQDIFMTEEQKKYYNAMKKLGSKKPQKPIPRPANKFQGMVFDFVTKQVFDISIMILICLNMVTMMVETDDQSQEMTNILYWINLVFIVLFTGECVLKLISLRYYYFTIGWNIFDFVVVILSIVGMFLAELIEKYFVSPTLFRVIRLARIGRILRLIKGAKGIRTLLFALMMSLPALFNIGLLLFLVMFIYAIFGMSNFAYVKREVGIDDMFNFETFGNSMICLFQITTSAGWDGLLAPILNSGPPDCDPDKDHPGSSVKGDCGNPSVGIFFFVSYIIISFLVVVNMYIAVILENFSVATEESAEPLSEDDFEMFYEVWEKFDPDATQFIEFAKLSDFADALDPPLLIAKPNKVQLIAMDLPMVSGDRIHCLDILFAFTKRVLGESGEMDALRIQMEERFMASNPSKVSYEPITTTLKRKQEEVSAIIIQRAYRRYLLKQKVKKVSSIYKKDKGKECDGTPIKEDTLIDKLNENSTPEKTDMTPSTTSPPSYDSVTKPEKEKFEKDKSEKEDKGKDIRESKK
T13 sequence (P35499 whole entry): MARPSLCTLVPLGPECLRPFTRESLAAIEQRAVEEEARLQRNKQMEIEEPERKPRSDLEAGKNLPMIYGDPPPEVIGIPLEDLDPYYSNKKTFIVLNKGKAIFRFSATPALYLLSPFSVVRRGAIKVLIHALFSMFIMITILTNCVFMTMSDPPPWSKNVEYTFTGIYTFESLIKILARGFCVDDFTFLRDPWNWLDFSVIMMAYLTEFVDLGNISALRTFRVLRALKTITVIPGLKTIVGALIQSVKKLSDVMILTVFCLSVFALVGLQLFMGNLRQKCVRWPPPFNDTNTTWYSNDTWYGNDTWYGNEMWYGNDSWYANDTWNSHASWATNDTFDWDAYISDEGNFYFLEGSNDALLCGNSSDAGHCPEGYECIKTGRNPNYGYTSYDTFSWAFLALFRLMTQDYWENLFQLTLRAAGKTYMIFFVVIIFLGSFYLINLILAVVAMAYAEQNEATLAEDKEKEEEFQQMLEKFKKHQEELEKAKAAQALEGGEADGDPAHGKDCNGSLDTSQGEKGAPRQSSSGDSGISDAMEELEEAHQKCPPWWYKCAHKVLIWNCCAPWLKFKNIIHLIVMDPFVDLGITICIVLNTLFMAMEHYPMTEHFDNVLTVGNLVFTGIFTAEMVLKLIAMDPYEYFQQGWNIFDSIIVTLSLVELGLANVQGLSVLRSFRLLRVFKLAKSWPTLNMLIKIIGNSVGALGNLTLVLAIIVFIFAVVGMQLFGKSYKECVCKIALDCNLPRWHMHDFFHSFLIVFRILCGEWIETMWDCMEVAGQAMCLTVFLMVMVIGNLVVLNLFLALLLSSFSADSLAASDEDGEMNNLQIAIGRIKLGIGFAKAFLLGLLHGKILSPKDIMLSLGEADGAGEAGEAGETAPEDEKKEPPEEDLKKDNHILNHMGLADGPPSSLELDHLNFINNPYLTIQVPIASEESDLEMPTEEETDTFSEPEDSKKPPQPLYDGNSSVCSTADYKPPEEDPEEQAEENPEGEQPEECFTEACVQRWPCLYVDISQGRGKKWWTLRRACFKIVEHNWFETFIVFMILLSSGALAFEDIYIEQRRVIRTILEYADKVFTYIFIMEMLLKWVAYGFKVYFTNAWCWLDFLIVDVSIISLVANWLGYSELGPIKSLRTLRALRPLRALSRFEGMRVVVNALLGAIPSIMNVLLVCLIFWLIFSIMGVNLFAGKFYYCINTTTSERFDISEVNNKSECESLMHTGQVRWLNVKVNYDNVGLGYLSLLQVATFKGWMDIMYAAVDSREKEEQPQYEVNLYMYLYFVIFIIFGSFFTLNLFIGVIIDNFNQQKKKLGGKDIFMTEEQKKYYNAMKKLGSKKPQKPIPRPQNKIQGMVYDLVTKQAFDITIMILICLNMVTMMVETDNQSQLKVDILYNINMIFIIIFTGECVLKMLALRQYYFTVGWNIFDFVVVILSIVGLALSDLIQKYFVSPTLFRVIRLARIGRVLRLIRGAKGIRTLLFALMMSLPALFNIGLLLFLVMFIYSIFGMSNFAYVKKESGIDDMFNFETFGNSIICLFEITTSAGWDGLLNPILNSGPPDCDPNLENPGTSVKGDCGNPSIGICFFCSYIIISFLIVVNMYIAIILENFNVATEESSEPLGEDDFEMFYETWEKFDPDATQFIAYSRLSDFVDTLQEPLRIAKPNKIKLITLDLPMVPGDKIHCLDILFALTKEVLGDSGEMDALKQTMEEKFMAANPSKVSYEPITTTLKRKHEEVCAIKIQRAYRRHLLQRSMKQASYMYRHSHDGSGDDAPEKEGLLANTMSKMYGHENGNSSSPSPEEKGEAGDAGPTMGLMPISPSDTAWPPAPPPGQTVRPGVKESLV

B1: F010302377 (bispecific antibody)
chain: DVQLVESGGGLVQPGGSLRLSCAASGSIFNINSMAWYRRAPGKQRELVASSTNGGSTNYADSVKGRFTISRDNAKRVYLQMNSLTPEDTAVYYCRALLQPSIYDISRTYWGQGTLVTVSSGGGGSGGGGSGGGGSGGGGSGGGGSGGGGSGGGGSGGGGSGGGGSGGGGSEVQLVESGGGLVQAGGSLRLSCAASKSILSFAYMRWYRQAPGKQREFVASIAIGGATSYTDSVKGRFTISRDNAKNTVYLQMNSLKPEDTAVYYCSAPAGQYRGQGTLVTVSSGAADYKDHDGDYKDHDIDYKDDDDKGAAHHHHHH
notes: also called F0103275B05(E1D, N93R)-50GS-F0103492E09-FLAG3-HIS6
Turning to B1, the “Qpatch IC50” value was 0.8 nM with huNav1.7α + β1-β2-β3 [1], 104 nM in the test with Rhesus Nav1.7α, 75 nM with rhNav1.7α + β1-β2-β3 [2] and 74 nM with huNav1.7α [3]. Moreover, the IC50 came out at 140 nM in the test with huNav1.7α + β1; 86 nM with huNav1.7α [4]; 4.1 nM in the test with huNav1.7α + β1-β2-β3 [5]; 5.2 nM in the test with huNav1.7α + β1-β2-β3 [6]; 1.2 nM with rhNav1.7α + β1-β2-β3 [7].

B2: F010301886 (VHH)
VHH: EVQLVESGGGLVQPGGSLRLSCATTSRAFIRDVFTGWYRRVPGKERELVARIYNGGNTQYADFAKGRFSISRDNAKKMVTLRMSNLKPEDTGVYYCLFSGTINTGREYRSGDYWGQGTLVTVSS
notes: also called F0103464B09(N58Q); N58Q
For B2, in [8], the “EC50 fold change compared to reference” value was 2 fold.

B3: F010301888 (VHH)
VHH: EVQLVESGGGLVQPGGSLRLSCATTHRAFIRDVFTGWYRRVPGKERELVARIYNGGNTNYADFAKGRFSISRDNAKKMVTLRMSNLKPEDTGVYYCLFSGTINTGREYRSGDYWGQGTLVTVSS
notes: also called F0103464B09(S26H); S26H
Turning to B3, in [8], the “EC50 fold change compared to reference” value worked out at 3 fold.

B4: F010301892 (VHH)
VHH: EVQLVESGGGLVQPGGSLRLSCATTSRAFIRDLFTGWYRRVPGKERELVARIYNGGNTNYADFAKGRFSISRDNAKKMVTLRMSNLKPEDTGVYYCLFSGTINTGREYRSGDYWGQGTLVTVSS
notes: also called F0103464B09(V33L); V33L
As to B4, in test [8], the “EC50 fold change compared to reference” value worked out at 3 fold.

B5: F0103265B04 (parental)-FLAG-HIS6 (VHH)
VHH: EVQLVESGGGLVQPGGSLRLSCAAPSFIFSNNYMEWYRQAPGKQRDWVARITGRGNTNYLDSVKGRFTISRDDAKNTVYLEIDSLKPEDTAVYYCSALWYGGRAWGKGTLVTVSS
As for B5, the EC50 with huNav1.7α+β1 was 5.5 nM; in the test with huNav1.7α+β1-β2-β3 [9] it was 5.4 nM; with huNav1.7α+β1-β2-β3 [10], 8.1 nM; in [11] it was 8.5 nM. Further, the binding result with rhNav1.7α+β1-β2-β3 is recorded as “no binding”; in the test with huNav1.5α+β1-β2-β3, “no binding”; in test [12], “no binding (tested: 1 µM)”; with huNav1.3α, “no binding”; with huNav1.4α it was “no binding”; with huNav1.5α, “no binding”. Further, the binding result with huNav1.6α, with huNav1.8α, with huNav1.1α and in the test with huNav1.2α was “no binding” in each case.

B6: F010302379 (bispecific antibody)
chain: DVQLVESGGGLVQPGGSLRLSCAASGSIFNINSMAWYRRAPGKQRELVASSTNGGSTNYADSVKGRFTISRDNAKRVYLQMNSLTPEDTAVYYCRALLQPSIYDISRTYWGQGTLVTVSSGGGGSGGGGSGGGGSGGGGSGGGGSGGGGSGGGGSGGGGSGGGGSGGGGSEVQLVESGGGLVQAGGSLRLSCAASGRTFSRYQMGWFRQAPGKEREFVAYISWSGSTRYVDSVKGRFTISRDNAKNTVYLQMNSLKPEDTAVYHCAAGTAGIISSRPETYDSWGQGTQVTVSSGAADYKDHDGDYKDHDIDYKDDDDKGAAHHHHHH
notes: also called F0103275B05(E1D, N93R)-50GS-F0103500E03(P14A, L108Q)-FLAG3-HIS6
Take B6: the “Qpatch IC50” value with huNav1.7α + β1-β2-β3 [1] was determined as 3.4 nM; with Rhesus Nav1.7α, 133 nM; in the test with rhNav1.7α + β1-β2-β3 [2], 131 nM; with huNav1.7α [3], 111 nM. Besides, the IC50 in the test with huNav1.7α + β1 was 150 nM; in the test with huNav1.7α [4], 85 nM; with huNav1.7α + β1-β2-β3 [5], 19 nM; with huNav1.7α + β1-β2-β3 [6] it was 16 nM; with rhNav1.7α + β1-β2-β3 [7], 4.8 nM.

B7: F010302378 (bispecific antibody)
chain: DVQLVESGGGLVQPGGSLRLSCAASGSIFNINSMAWYRRAPGKQRELVASSTNGGSTNYADSVKGRFTISRDNAKRVYLQMNSLTPEDTAVYYCRALLQPSIYDISRTYWGQGTLVTVSSGGGGSGGGGSGGGGSGGGGSGGGGSGGGGSGGGGSGGGGSGGGGSGGGGSEVQLVESGGGLVQAGSSLSLSCAASGRALSTYAMGWFRQAPGKEREFVARISRSGITTYYTDSVKGRFTISRDRAKDTVYLQMNSLKPEDTAIYLCAADASTNPAGYYLRNRYDYWGQGTLVTVSSGAADYKDHDGDYKDHDIDYKDDDDKGAAHHHHHH
notes: also called F0103275B05(E1D, N93R)-50GS-F0103495F09-FLAG3-HIS6
Consider B7, for which the “Qpatch IC50” value with huNav1.7α + β1-β2-β3 [1] amounted to 2.3 nM; in the test with Rhesus Nav1.7α it was 103 nM; in the test with rhNav1.7α + β1-β2-β3 [2] it was 2.6 nM; with huNav1.7α [3], 115 nM. Also, the IC50 is 5.2 nM with huNav1.7α + β1; 80 nM with huNav1.7α [4]; 10 nM with huNav1.7α + β1-β2-β3 [5]; 12 nM in the test with huNav1.7α + β1-β2-β3 [6]; 6.6 nM in the test with rhNav1.7α + β1-β2-β3 [7].

For orientation: IC50 means the concentration that inhibits the measured activity by half. The term EC50 denotes the midpoint of the concentration-response curve.

(Values after patent US20240002497A1 (Merck Sharp & Dohme, published 2024).)
